T1: SYNJ2BP, P57105
T1 sequence (P57105 8-110, limits assumed, looked up): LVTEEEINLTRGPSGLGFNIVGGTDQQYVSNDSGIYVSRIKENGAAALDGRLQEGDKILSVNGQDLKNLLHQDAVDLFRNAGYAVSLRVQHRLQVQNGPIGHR

T2: DFNB31_2, Q9P202
T2 sequence (Q9P202 274-371, limits assumed, looked up): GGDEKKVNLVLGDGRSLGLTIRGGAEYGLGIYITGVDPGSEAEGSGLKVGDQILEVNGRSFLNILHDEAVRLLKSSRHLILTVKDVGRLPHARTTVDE

T3: PARD3B_1, Q8TEW8
T3 sequence (Q8TEW8 196-299, limits assumed, looked up): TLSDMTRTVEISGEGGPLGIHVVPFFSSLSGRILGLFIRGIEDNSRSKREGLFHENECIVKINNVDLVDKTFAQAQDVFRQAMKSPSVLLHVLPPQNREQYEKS

T4: MPDZ_10, O75970
T4 sequence (O75970 1624-1722, limits assumed, looked up): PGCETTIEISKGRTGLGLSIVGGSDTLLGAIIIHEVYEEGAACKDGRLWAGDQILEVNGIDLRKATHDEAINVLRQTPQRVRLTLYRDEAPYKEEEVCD

T5: HTRA3, P83110
T5 sequence (P83110 354-453, limits assumed, looked up): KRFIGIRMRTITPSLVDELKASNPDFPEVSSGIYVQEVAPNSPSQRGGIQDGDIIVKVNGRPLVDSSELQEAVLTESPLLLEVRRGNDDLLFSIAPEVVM

T6: DLG3_3, Q92796
T6 sequence (Q92796 374-475, limits assumed, looked up): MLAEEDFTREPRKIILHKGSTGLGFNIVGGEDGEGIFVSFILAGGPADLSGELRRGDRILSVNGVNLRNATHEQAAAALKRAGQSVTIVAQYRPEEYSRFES

T7: PTPN13_1, Q12923
T7 sequence (Q12923 1088-1188, limits assumed, looked up): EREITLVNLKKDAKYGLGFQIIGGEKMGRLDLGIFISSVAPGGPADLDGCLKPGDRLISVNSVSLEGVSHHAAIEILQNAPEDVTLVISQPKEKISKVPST

T8: GRIP1_4, Q9Y3R0
T8 sequence (Q9Y3R0 467-571, limits assumed, looked up): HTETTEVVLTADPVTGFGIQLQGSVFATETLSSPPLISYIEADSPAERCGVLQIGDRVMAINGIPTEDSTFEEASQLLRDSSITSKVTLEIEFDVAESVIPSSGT

T9: GRIP1_2, Q9Y3R0
T9 sequence (Q9Y3R0 145-248, limits assumed, looked up): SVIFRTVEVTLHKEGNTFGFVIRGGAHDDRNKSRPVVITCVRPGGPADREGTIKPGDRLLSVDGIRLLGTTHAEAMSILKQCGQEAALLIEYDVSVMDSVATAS

T10: RHPN1, Q8TCX5
T10 sequence (Q8TCX5 508-602, limits assumed, looked up): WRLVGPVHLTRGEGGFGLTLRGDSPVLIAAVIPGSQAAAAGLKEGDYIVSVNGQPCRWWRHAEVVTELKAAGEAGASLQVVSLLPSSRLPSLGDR

T11: LIN7B, Q9HAP6
T11 sequence (Q9HAP6 88-185, limits assumed, looked up): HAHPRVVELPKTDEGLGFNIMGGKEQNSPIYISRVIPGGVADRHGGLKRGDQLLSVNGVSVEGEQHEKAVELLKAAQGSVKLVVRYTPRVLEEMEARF

T12: DLG3_2, Q92796
T12 sequence (Q92796 221-321, limits assumed, looked up): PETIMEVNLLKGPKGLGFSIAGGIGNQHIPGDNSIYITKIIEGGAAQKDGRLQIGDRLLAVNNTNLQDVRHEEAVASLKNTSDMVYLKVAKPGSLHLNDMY


What follows are binders tested against T1, SYNJ2BP, P57105 (assay: holdup assay). Conditions: plain residues with an end cap or a label only (N-terminal biotin on a linker: ado-ado).
Design: key: below the threshold = too weak to quantify, mostly under pKd 3.1 to 4
A pKd of 4.52 was found for NKSEPFLTWL [WWTR1, Q9GZV5] in this work.

These binders were tested against DLG4_2, P78352 (assay: holdup assay). Conditions: plain residues with an end cap or a label only (N-terminal biotin on a linker: ado-ado).
DLG4_2, P78352, sequence (P78352 155-259): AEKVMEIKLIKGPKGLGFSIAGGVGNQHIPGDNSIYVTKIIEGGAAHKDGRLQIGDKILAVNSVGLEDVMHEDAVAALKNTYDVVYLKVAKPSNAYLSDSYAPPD
Design: key: below the threshold = too weak to quantify, mostly under pKd 3.1 to 4
A pKd of 3.54 was found for NKSEPFLTWL [WWTR1, Q9GZV5] in this work.

Each binder was assayed against T2, DFNB31_2, Q9P202 (assay: holdup assay). Conditions: plain residues with an end cap or a label only (N-terminal biotin on a linker: ado-ado).
Design: key: below the threshold = too weak to quantify, mostly under pKd 3.1 to 4
For NKSEPFLTWL [WWTR1, Q9GZV5], the pKd was “below the threshold”.

The binders below were run against T3, PARD3B_1, Q8TEW8 (assay: holdup assay). Conditions: plain residues with an end cap or a label only (N-terminal biotin on a linker: ado-ado).
Design: key: below the threshold = too weak to quantify, mostly under pKd 3.1 to 4
A pKd of 4.57 was found for NKSEPFLTWL [WWTR1, Q9GZV5] in this work.

What follows are binders tested against Inadl_10, Q8NI35 (assay: holdup assay). Conditions: plain residues with an end cap or a label only (N-terminal biotin on a linker: ado-ado).
Inadl_10, Q8NI35, sequence (Q8NI35 1673-1763): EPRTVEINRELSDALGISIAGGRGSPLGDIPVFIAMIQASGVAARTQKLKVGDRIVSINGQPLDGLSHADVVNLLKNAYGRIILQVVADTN
Design: key: below the threshold = too weak to quantify, mostly under pKd 3.1 to 4
A pKd of 4.63 was found for NKSEPFLTWL [WWTR1, Q9GZV5] in this work.

These binders were tested against Inadl_5, Q8NI35 (assay: holdup assay). Conditions: plain residues with an end cap or a label only (N-terminal biotin on a linker: ado-ado).
Inadl_5, Q8NI35, sequence (Q8NI35 673-780): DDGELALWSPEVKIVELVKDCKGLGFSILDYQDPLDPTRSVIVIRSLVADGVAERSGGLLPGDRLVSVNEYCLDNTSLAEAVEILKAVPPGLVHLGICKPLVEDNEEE
Design: key: below the threshold = too weak to quantify, mostly under pKd 3.1 to 4
In the case of NKSEPFLTWL [WWTR1, Q9GZV5], the pKd is reported as “below the threshold”.

What follows are binders tested against T4, MPDZ_10, O75970 (assay: holdup assay). Conditions: plain residues with an end cap or a label only (N-terminal biotin on a linker: ado-ado).
Design: key: below the threshold = too weak to quantify, mostly under pKd 3.1 to 4
With NKSEPFLTWL [WWTR1, Q9GZV5] the pKd was “below the threshold”.

The binders below were run against Inadl_9, Q8NI35 (assay: holdup assay). Conditions: plain residues with an end cap or a label only (N-terminal biotin on a linker: ado-ado).
Inadl_9, Q8NI35, sequence (Q8NI35 1530-1615): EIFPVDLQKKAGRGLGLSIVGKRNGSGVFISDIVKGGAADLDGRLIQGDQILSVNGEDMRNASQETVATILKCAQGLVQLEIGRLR
Design: key: below the threshold = too weak to quantify, mostly under pKd 3.1 to 4
A pKd of 4.23 was found for NKSEPFLTWL [WWTR1, Q9GZV5] in this work.

Each binder was assayed against TJP2_1, Q9UDY2 (assay: holdup assay). Conditions: plain residues with an end cap or a label only (N-terminal biotin on a linker: ado-ado).
TJP2_1, Q9UDY2, sequence (Q9UDY2 24-128): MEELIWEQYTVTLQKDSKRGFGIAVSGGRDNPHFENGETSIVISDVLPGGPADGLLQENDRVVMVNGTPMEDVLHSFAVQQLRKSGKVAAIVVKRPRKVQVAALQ
Design: key: below the threshold = too weak to quantify, mostly under pKd 3.1 to 4
A pKd of 5.59 was found for NKSEPFLTWL [WWTR1, Q9GZV5] in this work.

Each binder was assayed against T5, HTRA3, P83110 (assay: holdup assay). Conditions: plain residues with an end cap or a label only (N-terminal biotin on a linker: ado-ado).
Design: key: below the threshold = too weak to quantify, mostly under pKd 3.1 to 4
A pKd of 5.43 was found for NKSEPFLTWL [WWTR1, Q9GZV5] in this work.

Each binder was assayed against NHERF4_4, Q86UT5 (assay: holdup assay). Conditions: plain residues with an end cap or a label only (N-terminal biotin on a linker: ado-ado).
NHERF4_4, Q86UT5, sequence (Q86UT5 464-550): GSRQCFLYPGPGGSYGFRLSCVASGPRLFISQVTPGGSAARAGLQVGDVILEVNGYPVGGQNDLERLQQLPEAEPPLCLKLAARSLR
Design: key: below the threshold = too weak to quantify, mostly under pKd 3.1 to 4
A pKd of 4.21 was found for NKSEPFLTWL [WWTR1, Q9GZV5] in this work.

The binders below were run against T6, DLG3_3, Q92796 (assay: holdup assay). Conditions: plain residues with an end cap or a label only (N-terminal biotin on a linker: ado-ado).
Design: key: below the threshold = too weak to quantify, mostly under pKd 3.1 to 4
With NKSEPFLTWL [WWTR1, Q9GZV5] the pKd was “below the threshold”.

The binders below were run against T7, PTPN13_1, Q12923 (assay: holdup assay). Conditions: plain residues with an end cap or a label only (N-terminal biotin on a linker: ado-ado).
Design: key: below the threshold = too weak to quantify, mostly under pKd 3.1 to 4
A pKd of 3.66 was found for NKSEPFLTWL [WWTR1, Q9GZV5] in this work.

The binders below were run against GORASP2, Q9H8Y8 (assay: holdup assay). Conditions: plain residues with an end cap or a label only (N-terminal biotin on a linker: ado-ado).
Design: key: below the threshold = too weak to quantify, mostly under pKd 3.1 to 4
A pKd of 4.9 was found for NKSEPFLTWL [WWTR1, Q9GZV5] in this work.

The binders below were run against HTRA1, Q92743 (assay: holdup assay). Conditions: plain residues with an end cap or a label only (N-terminal biotin on a linker: ado-ado).
HTRA1, Q92743, sequence (Q92743 360-477): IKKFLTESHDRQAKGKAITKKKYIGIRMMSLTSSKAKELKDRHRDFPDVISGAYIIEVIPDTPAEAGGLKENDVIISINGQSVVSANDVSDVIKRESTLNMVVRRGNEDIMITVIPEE
Design: key: below the threshold = too weak to quantify, mostly under pKd 3.1 to 4
A pKd of 4.91 was found for NKSEPFLTWL [WWTR1, Q9GZV5] in this work.

What follows are binders tested against LAP2, Q96RT1 (assay: holdup assay). Conditions: plain residues with an end cap or a label only (N-terminal biotin on a linker: ado-ado).
LAP2, Q96RT1, sequence (Q96RT1 other isoform, or with tags, fused parts or gaps): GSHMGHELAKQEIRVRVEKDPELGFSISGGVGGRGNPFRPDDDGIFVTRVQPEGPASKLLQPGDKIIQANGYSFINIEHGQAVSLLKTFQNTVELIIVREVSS
Design: key: below the threshold = too weak to quantify, mostly under pKd 3.1 to 4
A pKd of 4.6 was found for NKSEPFLTWL [WWTR1, Q9GZV5] in this work.

What follows are binders tested against T8, GRIP1_4, Q9Y3R0 (assay: holdup assay). Conditions: plain residues with an end cap or a label only (N-terminal biotin on a linker: ado-ado).
Design: key: below the threshold = too weak to quantify, mostly under pKd 3.1 to 4
With NKSEPFLTWL [WWTR1, Q9GZV5] the pKd was “below the threshold”.

What follows are binders tested against T9, GRIP1_2, Q9Y3R0 (assay: holdup assay). Conditions: plain residues with an end cap or a label only (N-terminal biotin on a linker: ado-ado).
Design: key: below the threshold = too weak to quantify, mostly under pKd 3.1 to 4
For NKSEPFLTWL [WWTR1, Q9GZV5], the pKd was “below the threshold”.

These binders were tested against T10, RHPN1, Q8TCX5 (assay: holdup assay). Conditions: plain residues with an end cap or a label only (N-terminal biotin on a linker: ado-ado).
Design: key: below the threshold = too weak to quantify, mostly under pKd 3.1 to 4
A pKd of 4.64 was found for NKSEPFLTWL [WWTR1, Q9GZV5] in this work.

These binders were tested against DLG2_2, Q15700 (assay: holdup assay). Conditions: plain residues with an end cap or a label only (N-terminal biotin on a linker: ado-ado).
DLG2_2, Q15700, sequence (Q15700 189-283): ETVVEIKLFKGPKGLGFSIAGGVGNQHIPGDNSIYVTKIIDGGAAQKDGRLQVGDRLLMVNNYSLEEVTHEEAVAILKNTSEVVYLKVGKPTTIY
Design: key: below the threshold = too weak to quantify, mostly under pKd 3.1 to 4
For NKSEPFLTWL [WWTR1, Q9GZV5], the pKd was “below the threshold”.

What follows are binders tested against IL16_1, Q14005 (assay: holdup assay). Conditions: plain residues with an end cap or a label only (N-terminal biotin on a linker: ado-ado).
IL16_1, Q14005, sequence (Q14005 210-306): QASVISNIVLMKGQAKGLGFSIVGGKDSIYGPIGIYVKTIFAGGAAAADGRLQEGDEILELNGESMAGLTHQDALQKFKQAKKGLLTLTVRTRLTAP
Design: key: below the threshold = too weak to quantify, mostly under pKd 3.1 to 4
With NKSEPFLTWL [WWTR1, Q9GZV5] the pKd was “below the threshold”.

The binders below were run against NOS1, P29475 (assay: holdup assay). Conditions: plain residues with an end cap or a label only (N-terminal biotin on a linker: ado-ado).
NOS1, P29475, sequence (P29475 9-101): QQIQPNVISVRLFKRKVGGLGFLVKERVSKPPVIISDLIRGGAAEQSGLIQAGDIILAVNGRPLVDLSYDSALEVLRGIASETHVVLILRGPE
Design: key: below the threshold = too weak to quantify, mostly under pKd 3.1 to 4
A pKd of 4.05 was found for NKSEPFLTWL [WWTR1, Q9GZV5] in this work.

Each binder was assayed against T11, LIN7B, Q9HAP6 (assay: holdup assay). Conditions: plain residues with an end cap or a label only (N-terminal biotin on a linker: ado-ado).
Design: key: below the threshold = too weak to quantify, mostly under pKd 3.1 to 4
NKSEPFLTWL [WWTR1, Q9GZV5] was tested, and the pKd was “below the threshold”.

What follows are binders tested against T12, DLG3_2, Q92796 (assay: holdup assay). Conditions: plain residues with an end cap or a label only (N-terminal biotin on a linker: ado-ado).
Design: key: below the threshold = too weak to quantify, mostly under pKd 3.1 to 4
NKSEPFLTWL [WWTR1, Q9GZV5] was tested, and the pKd was “below the threshold”.

Each binder was assayed against TJP1_3, Q07157 (assay: holdup assay). Conditions: plain residues with an end cap or a label only (N-terminal biotin on a linker: ado-ado).
TJP1_3, Q07157, sequence (Q07157 416-512): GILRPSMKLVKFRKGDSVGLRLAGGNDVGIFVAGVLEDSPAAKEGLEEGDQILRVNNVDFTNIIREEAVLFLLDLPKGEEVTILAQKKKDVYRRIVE
Design: key: below the threshold = too weak to quantify, mostly under pKd 3.1 to 4
In the case of NKSEPFLTWL [WWTR1, Q9GZV5], the pKd is reported as “below the threshold”.

Reference: article PMC9482650, “Quantitative fragmentomics allow affinity mapping of interactomes” (Nature Communications, 2022)
